B1: GpH7-B3 variant (T335_04F)/GpL16-k0 (antibody, human IgG1, kappa)
heavy: not shown
light: DIVMTQSPLSLPVTPGEPASISCQASESLVHSNRNTYLHWYLQKPGQSPQLLIYKVSNRFSGVPDRFSGSGSGTDFTLKISRVEAEDVGVYYCSQNTHVPPTFGQGTKVEIERTVAAPSVFIFPPSDEQLKSGTASVVCLLNNFYPREAKVQWKVDNALQSGNSQESVTEQDSKDSTYSLSSTLTLSKADYEKHKVYACEVTHQGLSSPVTKSFNRGEC
notes: Homodimerized; both H chains altered; also called Ho Ab T335_04F
B2: GpH7-B3 variant (A330_01G)/GpL16-k0 (antibody, human IgG1, kappa)
heavy: not shown
light: B1 light
notes: Homodimerized; both H chains altered; also called Ho Ab A330_01G
B3: GpH7-B3 variant (A330_04F)/GpL16-k0 (antibody, human IgG1, kappa)
heavy: not shown
light: B1 light
notes: Homodimerized; both H chains altered; also called Ho Ab A330_04F
B4: GpH7-B3 variant (A330_10E)/GpL16-k0 (antibody, human IgG1, kappa)
heavy: not shown
light: B1 light
notes: Homodimerized; both H chains altered; also called Ho Ab A330_10E
B5: GpH7-B3 variant (A330_19Q)/GpL16-k0 (antibody, human IgG1, kappa)
heavy: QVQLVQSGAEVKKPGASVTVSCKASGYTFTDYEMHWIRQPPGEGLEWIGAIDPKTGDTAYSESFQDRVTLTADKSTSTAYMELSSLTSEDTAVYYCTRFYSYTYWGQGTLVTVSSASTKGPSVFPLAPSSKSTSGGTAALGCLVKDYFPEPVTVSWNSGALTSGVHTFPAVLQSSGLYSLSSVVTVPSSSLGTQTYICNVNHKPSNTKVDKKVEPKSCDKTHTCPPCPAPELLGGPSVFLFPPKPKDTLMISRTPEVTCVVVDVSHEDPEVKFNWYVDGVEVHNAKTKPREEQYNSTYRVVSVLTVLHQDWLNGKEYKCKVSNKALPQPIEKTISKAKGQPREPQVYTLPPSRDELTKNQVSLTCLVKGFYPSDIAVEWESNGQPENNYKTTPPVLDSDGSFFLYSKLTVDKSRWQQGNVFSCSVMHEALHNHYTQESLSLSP
light: B1 light
notes: Homodimerized; both H chains altered; also called Ho Ab A330_19Q
B6: GpH7-B3 variant (A330_20W)/GpL16-k0 (antibody, human IgG1, kappa)
heavy: not shown
light: B1 light
notes: Homodimerized; both H chains altered; also called Ho Ab A330_20W
B7: GpH7-B3 variant (D265_10E)/GpL16-k0 (antibody, human IgG1, kappa)
heavy: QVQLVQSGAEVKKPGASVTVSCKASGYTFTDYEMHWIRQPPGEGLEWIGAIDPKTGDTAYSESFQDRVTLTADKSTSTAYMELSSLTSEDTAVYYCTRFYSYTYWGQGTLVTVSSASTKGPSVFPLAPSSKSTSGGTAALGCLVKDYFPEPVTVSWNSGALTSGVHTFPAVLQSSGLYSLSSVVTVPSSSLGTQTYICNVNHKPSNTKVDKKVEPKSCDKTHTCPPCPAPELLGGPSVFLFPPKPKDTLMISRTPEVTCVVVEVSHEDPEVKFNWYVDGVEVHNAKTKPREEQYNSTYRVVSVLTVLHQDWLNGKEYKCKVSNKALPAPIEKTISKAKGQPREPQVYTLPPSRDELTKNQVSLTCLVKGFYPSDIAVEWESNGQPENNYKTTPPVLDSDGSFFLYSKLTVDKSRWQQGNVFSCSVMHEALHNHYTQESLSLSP
light: B1 light
notes: Homodimerized; both H chains altered; also called Ho Ab D265_10E
B8: GpH7-B3 variant (H268_01G)/GpL16-k0 (antibody, human IgG1, kappa)
heavy: not shown
light: B1 light
notes: Homodimerized; both H chains altered; also called Ho Ab H268_01G
B9: GpH7-B3 variant (H268_09D)/GpL16-k0 (antibody, human IgG1, kappa)
heavy: not shown
light: B1 light
notes: Homodimerized; both H chains altered; also called Ho Ab H268_09D
B10: GpH7-B3 variant (H268_10E)/GpL16-k0 (antibody, human IgG1, kappa)
heavy: not shown
light: B1 light
notes: Homodimerized; both H chains altered; also called Ho Ab H268_10E
B11: GpH7-B3 variant (H268_13S)/GpL16-k0 (antibody, human IgG1, kappa)
heavy: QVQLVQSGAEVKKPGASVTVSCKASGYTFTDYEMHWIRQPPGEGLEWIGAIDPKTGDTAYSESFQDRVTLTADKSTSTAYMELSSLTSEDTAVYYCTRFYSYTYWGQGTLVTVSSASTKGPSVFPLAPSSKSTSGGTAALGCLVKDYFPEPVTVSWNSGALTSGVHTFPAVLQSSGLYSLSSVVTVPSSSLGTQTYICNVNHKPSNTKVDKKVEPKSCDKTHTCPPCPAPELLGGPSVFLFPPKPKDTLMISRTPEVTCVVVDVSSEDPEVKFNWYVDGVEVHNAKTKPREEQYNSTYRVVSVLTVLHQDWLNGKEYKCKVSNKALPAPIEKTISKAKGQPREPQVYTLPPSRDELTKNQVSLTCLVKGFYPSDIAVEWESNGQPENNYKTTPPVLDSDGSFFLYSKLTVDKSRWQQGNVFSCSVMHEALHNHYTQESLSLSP
light: B1 light
notes: Homodimerized; both H chains altered; also called Ho Ab H268_13S
B12: GpH7-B3 variant (H268_18N)/GpL16-k0 (antibody, human IgG1, kappa)
heavy: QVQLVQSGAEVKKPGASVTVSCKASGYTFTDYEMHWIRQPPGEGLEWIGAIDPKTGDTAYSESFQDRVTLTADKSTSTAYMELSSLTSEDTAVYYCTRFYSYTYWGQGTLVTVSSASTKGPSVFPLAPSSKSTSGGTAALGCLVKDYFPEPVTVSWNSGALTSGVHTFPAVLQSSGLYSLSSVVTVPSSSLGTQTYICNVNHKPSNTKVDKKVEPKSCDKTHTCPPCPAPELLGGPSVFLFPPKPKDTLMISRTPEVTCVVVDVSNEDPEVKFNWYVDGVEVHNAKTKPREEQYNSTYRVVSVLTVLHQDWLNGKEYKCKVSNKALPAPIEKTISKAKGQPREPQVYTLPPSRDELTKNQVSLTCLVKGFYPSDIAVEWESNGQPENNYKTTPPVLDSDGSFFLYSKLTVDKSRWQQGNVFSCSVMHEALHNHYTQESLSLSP
light: B1 light
notes: Homodimerized; both H chains altered; also called Ho Ab H268_18N
B13: GpH7-B3 variant (I336_08L)/GpL16-k0 (antibody, human IgG1, kappa)
heavy: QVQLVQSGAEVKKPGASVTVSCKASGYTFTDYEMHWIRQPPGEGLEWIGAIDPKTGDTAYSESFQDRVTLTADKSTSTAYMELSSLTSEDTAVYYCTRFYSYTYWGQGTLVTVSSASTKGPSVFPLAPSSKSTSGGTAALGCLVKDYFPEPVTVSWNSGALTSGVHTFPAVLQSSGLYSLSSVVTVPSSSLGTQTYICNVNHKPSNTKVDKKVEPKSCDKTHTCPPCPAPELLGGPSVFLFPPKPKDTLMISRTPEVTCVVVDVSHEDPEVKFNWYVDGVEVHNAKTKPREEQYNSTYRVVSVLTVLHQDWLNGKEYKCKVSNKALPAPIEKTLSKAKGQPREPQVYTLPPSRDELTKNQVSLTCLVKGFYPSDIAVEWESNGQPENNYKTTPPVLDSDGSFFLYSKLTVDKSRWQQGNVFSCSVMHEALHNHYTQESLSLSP
light: B1 light
notes: Homodimerized; both H chains altered; also called Ho Ab I336_08L
B14: GpH7-B3 variant (I336_09D)/GpL16-k0 (antibody, human IgG1, kappa)
heavy: not shown
light: B1 light
notes: Homodimerized; both H chains altered; also called Ho Ab I336_09D
B15: GpH7-B3 variant (I336_11K)/GpL16-k0 (antibody, human IgG1, kappa)
heavy: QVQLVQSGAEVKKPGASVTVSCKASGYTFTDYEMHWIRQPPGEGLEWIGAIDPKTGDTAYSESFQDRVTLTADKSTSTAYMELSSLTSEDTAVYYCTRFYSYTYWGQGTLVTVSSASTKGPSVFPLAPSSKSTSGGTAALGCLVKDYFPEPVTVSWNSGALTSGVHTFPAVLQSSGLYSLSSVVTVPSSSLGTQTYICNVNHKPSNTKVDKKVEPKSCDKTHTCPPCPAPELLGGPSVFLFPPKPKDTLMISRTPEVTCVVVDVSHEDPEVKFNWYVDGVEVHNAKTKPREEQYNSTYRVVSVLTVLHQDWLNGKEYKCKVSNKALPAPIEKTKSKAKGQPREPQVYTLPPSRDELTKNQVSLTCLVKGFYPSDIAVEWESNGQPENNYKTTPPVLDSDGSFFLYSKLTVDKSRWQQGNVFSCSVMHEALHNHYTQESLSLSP
light: B1 light
notes: Homodimerized; both H chains altered; also called Ho Ab I336_11K
B16: GpH7-B3 variant (I336_12R)/GpL16-k0 (antibody, human IgG1, kappa)
heavy: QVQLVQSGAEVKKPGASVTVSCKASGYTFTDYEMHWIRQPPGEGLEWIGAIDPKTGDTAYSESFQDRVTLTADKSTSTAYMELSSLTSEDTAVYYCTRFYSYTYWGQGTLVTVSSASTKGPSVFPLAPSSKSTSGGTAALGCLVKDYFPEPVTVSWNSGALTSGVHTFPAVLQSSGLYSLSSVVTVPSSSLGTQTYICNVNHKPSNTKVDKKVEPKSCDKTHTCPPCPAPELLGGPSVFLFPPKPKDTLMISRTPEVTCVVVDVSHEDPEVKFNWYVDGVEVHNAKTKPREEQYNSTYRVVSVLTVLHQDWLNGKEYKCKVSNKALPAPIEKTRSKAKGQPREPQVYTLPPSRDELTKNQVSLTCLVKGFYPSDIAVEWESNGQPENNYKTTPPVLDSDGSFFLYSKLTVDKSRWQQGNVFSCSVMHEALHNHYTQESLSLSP
light: B1 light
notes: Homodimerized; both H chains altered; also called Ho Ab I336_12R
B17: GpH7-B3 variant (I336_13S)/GpL16-k0 (antibody, human IgG1, kappa)
heavy: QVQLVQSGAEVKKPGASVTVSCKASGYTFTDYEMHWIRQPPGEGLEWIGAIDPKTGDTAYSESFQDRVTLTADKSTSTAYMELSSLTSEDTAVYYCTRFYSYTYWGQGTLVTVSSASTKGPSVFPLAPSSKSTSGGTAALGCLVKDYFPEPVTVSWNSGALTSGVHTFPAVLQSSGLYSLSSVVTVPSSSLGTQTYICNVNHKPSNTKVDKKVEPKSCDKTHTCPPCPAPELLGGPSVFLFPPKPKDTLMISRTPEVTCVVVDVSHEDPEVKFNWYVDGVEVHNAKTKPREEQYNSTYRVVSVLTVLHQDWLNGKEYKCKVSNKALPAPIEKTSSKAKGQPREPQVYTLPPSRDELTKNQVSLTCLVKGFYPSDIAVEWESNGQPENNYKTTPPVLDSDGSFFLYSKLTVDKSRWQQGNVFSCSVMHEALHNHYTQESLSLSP
light: B1 light
notes: Homodimerized; both H chains altered; also called Ho Ab I336_13S
B18: GpH7-B3 variant (I336_14T)/GpL16-k0 (antibody, human IgG1, kappa)
heavy: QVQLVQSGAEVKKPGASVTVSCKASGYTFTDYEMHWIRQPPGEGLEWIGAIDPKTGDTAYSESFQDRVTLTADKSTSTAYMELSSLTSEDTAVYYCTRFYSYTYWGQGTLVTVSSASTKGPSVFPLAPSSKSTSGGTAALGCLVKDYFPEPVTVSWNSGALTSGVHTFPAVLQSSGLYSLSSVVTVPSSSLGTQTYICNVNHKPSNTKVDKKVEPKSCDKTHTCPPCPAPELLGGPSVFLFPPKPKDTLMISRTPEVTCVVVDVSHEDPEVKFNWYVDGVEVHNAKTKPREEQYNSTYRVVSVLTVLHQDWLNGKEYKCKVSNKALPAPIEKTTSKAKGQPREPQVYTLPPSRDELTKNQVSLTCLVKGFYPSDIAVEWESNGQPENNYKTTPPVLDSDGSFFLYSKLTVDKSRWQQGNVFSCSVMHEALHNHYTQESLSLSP
light: B1 light
notes: Homodimerized; both H chains altered; also called Ho Ab I336_14T
B19: GpH7-B3 variant (S337_04F)/GpL16-k0 (antibody, human IgG1, kappa)
heavy: not shown
light: B1 light
notes: Homodimerized; both H chains altered; also called Ho Ab S337_04F
B20: GpH7-B3 variant (S337_06M)/GpL16-k0 (antibody, human IgG1, kappa)
heavy: not shown
light: B1 light
notes: Homodimerized; both H chains altered; also called Ho Ab S337_06M
B21: GpH7-B3 variant (S337_07I)/GpL16-k0 (antibody, human IgG1, kappa)
heavy: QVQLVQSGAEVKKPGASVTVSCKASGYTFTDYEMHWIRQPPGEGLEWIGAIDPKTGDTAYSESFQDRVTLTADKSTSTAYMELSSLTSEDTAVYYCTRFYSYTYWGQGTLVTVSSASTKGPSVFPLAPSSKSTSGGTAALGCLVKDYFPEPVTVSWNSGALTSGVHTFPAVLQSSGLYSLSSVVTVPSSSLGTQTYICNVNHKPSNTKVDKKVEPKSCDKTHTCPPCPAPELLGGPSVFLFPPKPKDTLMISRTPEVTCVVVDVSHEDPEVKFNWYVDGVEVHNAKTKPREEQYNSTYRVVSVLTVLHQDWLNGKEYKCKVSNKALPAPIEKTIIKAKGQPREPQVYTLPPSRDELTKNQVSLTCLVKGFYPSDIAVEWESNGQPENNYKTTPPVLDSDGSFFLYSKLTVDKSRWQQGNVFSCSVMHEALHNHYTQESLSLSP
light: B1 light
notes: Homodimerized; both H chains altered; also called Ho Ab S337_07I
B22: GpH7-B3 variant (S337_08L)/GpL16-k0 (antibody, human IgG1, kappa)
heavy: not shown
light: B1 light
notes: Homodimerized; both H chains altered; also called Ho Ab S337_08L
B23: GpH7-B3 variant (S337_09D)/GpL16-k0 (antibody, human IgG1, kappa)
heavy: not shown
light: B1 light
notes: Homodimerized; both H chains altered; also called Ho Ab S337_09D
B24: GpH7-B3 variant (S337_10E)/GpL16-k0 (antibody, human IgG1, kappa)
heavy: not shown
light: B1 light
notes: Homodimerized; both H chains altered; also called Ho Ab S337_10E

target: T1, FcγRIa extracellular domain with C-terminal His tag (human, UniProt P12314 16-292); assay: SPR (Biacore), captured antibody, FcγRIa analyte; relative to GpH7-B3/GpL16-k0 = 100
T1 construct: extracellular domain; Expressed in FreeStyle293 cells; used as analyte in Biacore; also called FcgRI; 1a; not shown: His tag at the C terminus
T1 sequence (P12314 16-292): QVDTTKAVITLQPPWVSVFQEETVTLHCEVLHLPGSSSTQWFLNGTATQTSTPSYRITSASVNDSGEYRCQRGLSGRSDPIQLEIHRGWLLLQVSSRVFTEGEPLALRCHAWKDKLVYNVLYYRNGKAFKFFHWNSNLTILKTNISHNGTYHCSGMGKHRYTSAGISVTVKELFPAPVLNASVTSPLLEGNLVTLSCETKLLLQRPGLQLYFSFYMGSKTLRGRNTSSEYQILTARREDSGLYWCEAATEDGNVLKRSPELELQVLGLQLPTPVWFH

| Binder | Ho/Con_1a |
| --- | --- |
| B1 | 105 % of control |
| B2 | 106 % of control |
| B3 | 107 % of control |
| B4 | 108 % of control |
| B5 | 106 % of control |
| B6 | 108 % of control |
| B7 | 103 % of control |
| B8 | 108 % of control |
| B9 | 110 % of control |
| B10 | 112 % of control |
| B11 | 110 % of control |
| B12 | 108 % of control |
| B13 | 109 % of control |
| B14 | 108 % of control |
| B15 | 107 % of control |
| B16 | 109 % of control |
| B17 | 110 % of control |
| B18 | 111 % of control |
| B19 | 105 % of control |
| B20 | 102 % of control |
| B21 | 105 % of control |
| B22 | 105 % of control |
| B23 | 106 % of control |
| B24 | 104 % of control |
